For two substances, number beside the gate bar of the histogram (share of cells in the positive gate; name not given) and sTCR switch concentration results are on record in patent publication US20190169289A1.

One assay has as its target CART19. Kind of assay: flow cytometry of CART19 T cells; filled histogram with a second population at about 10^3-10^4 against a dashed control histogram; the legend names an AF647 conjugate, the axis prints APC.
Assay [1] deals with anti-GCN4 (52SR4 scFv) sCAR with CD8 hinge. Kind of assay: flow cytometry of CD8 sCAR T cells; filled histogram with a second peak at about 10^4 against a dashed control histogram; the legend names an AF647 conjugate, the axis prints APC.
For assay [2], the target named is HLA molecules on T2 cells loaded with the NY-ESO-1 peptide. The assay is described as follows: cell-based or functional assay.

Where only a bound is given, the exact number is not on record here.

Chain of anti-GCN4 (52SR4 scFv) sCAR with CD8 hinge (chain, as listed by the source limits assumed): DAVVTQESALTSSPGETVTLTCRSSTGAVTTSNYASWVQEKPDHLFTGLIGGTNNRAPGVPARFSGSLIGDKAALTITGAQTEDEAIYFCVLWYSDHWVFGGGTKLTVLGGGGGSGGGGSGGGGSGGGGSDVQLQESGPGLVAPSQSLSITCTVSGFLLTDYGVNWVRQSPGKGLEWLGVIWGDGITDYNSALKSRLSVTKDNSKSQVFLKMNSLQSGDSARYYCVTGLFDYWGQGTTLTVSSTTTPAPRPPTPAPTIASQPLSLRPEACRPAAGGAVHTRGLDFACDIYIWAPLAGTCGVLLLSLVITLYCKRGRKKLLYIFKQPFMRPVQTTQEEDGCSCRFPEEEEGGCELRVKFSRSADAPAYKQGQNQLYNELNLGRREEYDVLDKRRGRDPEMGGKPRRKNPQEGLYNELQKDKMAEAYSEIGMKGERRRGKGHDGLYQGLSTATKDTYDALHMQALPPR
Chain of CART19 (chimeric antigen receptor, as listed by the source limits assumed): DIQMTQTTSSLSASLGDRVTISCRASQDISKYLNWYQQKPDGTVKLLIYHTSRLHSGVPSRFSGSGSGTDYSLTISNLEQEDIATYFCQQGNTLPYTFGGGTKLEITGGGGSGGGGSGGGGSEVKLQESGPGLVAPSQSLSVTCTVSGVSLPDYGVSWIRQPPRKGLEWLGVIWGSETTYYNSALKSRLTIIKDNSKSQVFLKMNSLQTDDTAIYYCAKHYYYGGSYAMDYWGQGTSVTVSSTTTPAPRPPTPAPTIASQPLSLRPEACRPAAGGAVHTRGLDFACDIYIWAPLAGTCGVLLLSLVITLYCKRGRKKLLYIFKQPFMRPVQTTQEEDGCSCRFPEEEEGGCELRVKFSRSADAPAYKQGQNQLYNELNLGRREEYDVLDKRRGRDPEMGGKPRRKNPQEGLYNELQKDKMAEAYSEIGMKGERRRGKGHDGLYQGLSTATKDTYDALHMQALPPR

On to “APC-conjugated goat-anti mouse IgG (H&L) polyclonal antibody”, for which the results for the number beside the gate bar of the histogram (share of cells in the positive gate; name not given) (with CART19; in assay [1]) were 53.3 and 69.3, respectively.
“NY-ESO-1 specific soluble TCR 1G4c113 with C-terminal GCN4 peptide and 6x HIS tag on the beta chain”: in assay [2], the sTCR switch concentration at which IFNg, IL-2 and TNFa are produced was more than 10 pM; the sTCR switch concentration at which T cells express CD25 and CD69 was more than 1 pM.
